Test results as given in US20080181899A1 (Regeneron, published 2008).

How the values were obtained:
[1] = target: hDII4 on cells (DII4 expressing HUVEC; engineered C6 rat glioma cells expressing hDII4) (human, UniProt Q9NR61 27-685); assay: cell-based or functional assay
hDII4-mFc = target: T1, hDII4-mFc (human, UniProt Q9NR61 27-524); assay: SPR BIACORE; antibody captured by anti-hFc; dimeric DII4-mFc analyte
T1 construct: also called dimeric DII4-mFc; not shown: mouse Fc
Experimental: Equilibrium dissociation constants (KD values) for antigen binding to the selected antibodies described above were determined by surface kinetics on a real-time biosensor surface plasmon resonance assay (BIACORE™ 2000). The antibody was captured on a goat anti-mouse IgG polyclonal antibody surface created through direct chemical coupling to a BIACORE™ chip to form a captured antibody surface. […] Kinetic analysis was performed to calculate KD, dissociation rate constants, and half-life of antigen/antibody complex dissociation (Table 1). […] Antibodies were presented by goat anti-hFc polyclonal antibody reagent (Jackson Immuno Research Lab) immobilized on BIACORE™ chip, and exposed to either dimeric DII4-mFc or monomeric DII4 protein (Table 2).

dimeric hDII4-hFc = dimeric hDII4-hFc (human, UniProt Q9NR61 27-524, biotin in Example 3 (biotin-DII4-hFc), site not stated); assay: cell-based or functional assay
dimeric hDII4-hFc, sequence (Q9NR61 27-524 limits assumed): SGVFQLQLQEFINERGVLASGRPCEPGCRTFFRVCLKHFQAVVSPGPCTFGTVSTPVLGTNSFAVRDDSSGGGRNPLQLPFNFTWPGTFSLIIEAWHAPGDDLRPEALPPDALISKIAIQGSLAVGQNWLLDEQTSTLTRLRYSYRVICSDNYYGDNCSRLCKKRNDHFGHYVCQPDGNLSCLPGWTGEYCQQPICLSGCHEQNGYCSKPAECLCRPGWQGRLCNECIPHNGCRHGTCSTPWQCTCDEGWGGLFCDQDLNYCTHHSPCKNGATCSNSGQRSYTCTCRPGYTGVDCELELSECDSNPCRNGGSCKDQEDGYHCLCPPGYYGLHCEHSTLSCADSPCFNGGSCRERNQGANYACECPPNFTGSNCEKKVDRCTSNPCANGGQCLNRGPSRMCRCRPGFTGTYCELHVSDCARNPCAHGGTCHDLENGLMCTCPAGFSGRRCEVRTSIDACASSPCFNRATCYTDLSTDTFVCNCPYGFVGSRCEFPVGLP

hDII4 on cells (DII4 expressing HUVEC; engineered C6 rat glioma cells expressing hDII4), sequence (Q9NR61 27-685 limits assumed, change not shown): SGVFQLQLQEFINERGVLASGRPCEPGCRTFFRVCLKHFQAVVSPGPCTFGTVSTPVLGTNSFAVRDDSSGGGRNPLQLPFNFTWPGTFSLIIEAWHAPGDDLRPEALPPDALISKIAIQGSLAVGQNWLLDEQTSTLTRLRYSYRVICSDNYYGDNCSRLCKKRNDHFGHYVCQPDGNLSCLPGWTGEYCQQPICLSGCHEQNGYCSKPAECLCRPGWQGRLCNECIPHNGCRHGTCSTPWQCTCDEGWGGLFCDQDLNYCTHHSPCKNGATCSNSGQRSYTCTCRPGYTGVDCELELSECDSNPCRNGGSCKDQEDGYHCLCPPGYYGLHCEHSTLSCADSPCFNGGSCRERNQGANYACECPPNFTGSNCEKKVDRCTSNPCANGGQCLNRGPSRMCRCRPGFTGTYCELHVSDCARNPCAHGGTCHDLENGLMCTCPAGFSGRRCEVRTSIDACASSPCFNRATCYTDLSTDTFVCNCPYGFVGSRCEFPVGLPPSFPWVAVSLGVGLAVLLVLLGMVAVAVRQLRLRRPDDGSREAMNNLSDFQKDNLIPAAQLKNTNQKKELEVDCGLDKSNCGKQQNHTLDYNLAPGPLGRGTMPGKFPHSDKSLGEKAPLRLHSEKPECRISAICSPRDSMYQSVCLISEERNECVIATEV
T1 sequence (Q9NR61 27-524 limits assumed): as the sequence (Q9NR61 27-524 limits assumed) above

B1: 318518-01A10-D8 (antibody, human IgG1)
heavy: not shown
VL: EIVMTQSPATLSLSPGERATLSCRASQSVSSYLAWYQQKPGQAPRLLIYDASNRATGIPARFSGSGSGTDFTLTISSLEPEDFAVYYCQHRSNWPPTFGGGTKVEIK
notes: HCVR 429 with hIgG1 constant region 950; also called REGN281; 318518-1A10-D8
EphrinB2 Expression IC50 [1]: 0.305 nM
Hes1 Expression IC50 [1]: 0.329 nM
Kd (hDII4-mFc): 0.018 nM
HUVEC proliferation assay IC50 (dimeric hDII4-hFc): 0.096 nM
